This is an account of results in US5910570.

In experiment [1] the target is synthetic acceptor peptide Pro-Pro-Ala-D-Ser-Thr-D-Ser-Ala-Pro-Gly (PPAdSTdSAPG).
Experiment [2] has as its target T1, synthetic acceptor peptide Arg-Ser-Pro-Pro-Pro (RSPPP).
T1 sequence (peptide): RSPPP

For experiment [3], the target named is synthetic acceptor peptide Pro-Pro-Ala-D-Ser-Thr-D-Ser-Ala-Pro-Gly (PPAdSTdSAPG). This is another data set of the same source.
In experiment [4] the target is T2, synthetic acceptor peptide Arg-Thr-Pro-Pro-Pro (RTPPP).
T2 sequence (peptide): RTPPP

Experiment [5] has as its target T1, synthetic acceptor peptide Arg-Ser-Pro-Pro-Pro (RSPPP). The source holds these as a separate data set.
The target in experiment [6] is T3, bovine rhodanese, reduced and carboxymethylated (bovine) (UniProt P00586).
T3 sequence (chain, reduced and carboxymethylated): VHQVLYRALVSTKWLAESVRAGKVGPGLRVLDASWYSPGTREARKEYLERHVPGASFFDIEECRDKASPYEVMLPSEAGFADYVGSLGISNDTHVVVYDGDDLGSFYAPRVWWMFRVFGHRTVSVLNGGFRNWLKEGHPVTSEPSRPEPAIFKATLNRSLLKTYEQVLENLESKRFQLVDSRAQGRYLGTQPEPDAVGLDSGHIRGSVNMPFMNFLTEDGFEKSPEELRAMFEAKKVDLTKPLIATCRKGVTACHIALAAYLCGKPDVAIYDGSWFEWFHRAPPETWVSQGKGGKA

The target of experiment [7] is T4, bovine rhodanese, native (bovine) (UniProt P00586).
T4 sequence: T3 sequence (chain, reduced and carboxymethylated)

Experiment [8] concerns the target bovine cytochrome C, native (bovine) (UniProt P62894).
The target of experiment [9] is T5, subtilisin, native (Bacillus amyloliquefaciens (Bacillus velezensis)) (UniProt P00782).
T5 sequence: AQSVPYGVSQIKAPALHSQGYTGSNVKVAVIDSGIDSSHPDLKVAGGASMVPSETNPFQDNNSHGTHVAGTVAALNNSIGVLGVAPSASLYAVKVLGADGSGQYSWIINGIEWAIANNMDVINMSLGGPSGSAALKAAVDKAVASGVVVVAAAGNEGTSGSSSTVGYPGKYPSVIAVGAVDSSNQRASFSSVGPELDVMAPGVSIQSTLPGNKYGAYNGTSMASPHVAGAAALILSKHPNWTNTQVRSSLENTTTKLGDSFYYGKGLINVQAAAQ

Experiment [10] has as its target T6, subtilisin, reduced and carboxymethylated (Bacillus amyloliquefaciens (Bacillus velezensis)) (UniProt P00782).
T6 sequence (chain, reduced and carboxymethylated): T5 sequence

The target of experiment [11] is bovine cytochrome C, reduced and carboxymethylated (bovine) (UniProt P62894).

Sequence of myelin basic protein (P02687 whole entry): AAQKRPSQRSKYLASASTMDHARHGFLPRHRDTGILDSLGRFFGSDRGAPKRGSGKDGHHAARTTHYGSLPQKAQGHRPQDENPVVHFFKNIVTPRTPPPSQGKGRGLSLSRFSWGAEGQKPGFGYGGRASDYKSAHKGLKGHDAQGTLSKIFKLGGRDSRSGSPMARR

B1: UDP-GalNAc:polypeptide N-acetylgalactosaminyltransferase purified from bovine colostrum (enzyme)
chain: GLPAGDVLEPVQKPHEGPGEMGKPVVIPKEDQEKMKEMFKINQFNLMASEMIALNRSLPDVRLEGCKTKVYPDNLPTTSVVIVFHNEAWSTLLRTVHSVINRSPRHMLEEIVLVDDASERDFLKRPLESYVKKLKVPVHVIRMEQRSGLIRARLKGAAVSKGQVITFLDAHCECTVGWLEPLLARIKHDRKTVVCPIIDVISDDTFEYMAGSDMTYGGFNWKLNFRWYPVPQREMDRRKGDRTLPVRTPTMAGGLFSIDRDYFQEIGTYDAGMDIWGGENLEISFRIWQCGGTLEIVTCSHVGHVFRKATPYTFPGGTGQIINKNNRRLAEVWMDEFKNFFYIISPGVTKVDYGDISSRLGLRHKLQCRPFSWYLENIYPDSQIPRHYFSLGEIRNVETNQCLDNMARKENEKVGIFNCHGMGGNQVFSYTANKEIRTDDLCLDVSKLNGPVTMLKCHHLKGNQLWEYDPVKLTLQHVNSNQCLDKATDEDSQVPSIRDCSGSRSQQWLLRNVTLPEIF
modifications: native glycoprotein (peptide N-glycosidase F shifts it by approximately 6 kDa)
Turning to B1, the Product formed in [1] is 2 nmol/min/mg; in [2], 0.67 nmol/min/mg; in [6], 3.3 nmol/min/mg; in [7] it was less than 0.1 nmol/min/mg; in [8] it was less than 0.1 nmol/min/mg; in experiment [9] it was less than 0.1 nmol/min/mg. The Product formed is 0.6 nmol/min/mg in [10], less than 0.1 nmol/min/mg in [11] and 22.2 nmol/min/mg with myelin basic protein. Further, the Vmax/Km in experiment [3] worked out at 1.2 M⁻¹ s⁻¹; in experiment [4], 183 M⁻¹ s⁻¹; in experiment [5], 0.4 M⁻¹ s⁻¹. For the same molecule, in experiment [4], the Km was 3.3 mM.

In general, Km refers to the concentration of substrate that gives half-maximal velocity.
